Measured values reported in a protein production outcome set (Wang et al. 2014).

Test: label from the status in PepcDB records

| Sequence | protein production |
| --- | --- |
| KSVFPFSNVLKQTLLKRATVFLGVPAIYTAMSKAKIPWYFRWFNRIRLFISGGAPLAEQTILDFKAKFPRAKLLEGYGLSEASPVVAVNTPERQKARSVGIPLPGLEAKAVDEELVEVPRGEVGELIVRGGSVMRGYLNMPAATDETIVNGWLKTGDFVTIDEDGFIFIVDRKKDLIISKGQNVYPREIEEEIYKLDAVEAAAVIGVKDRYADEEIVAFVQLKEGMDLGENEIRRHLRTVLANFKIPKQIHFKDGLPRNATGKVLKRVLKEQFDGNK | failed |
| MGDASINIDKETVANYFVIKQGGPINRDHWTVTANTEEKTGEVSAAYPHNGQTISLIDGEINTFWHSKWQGGEVAPPYEIILDMGKENSVSQLGLIARQNALTSMNLEIYAGDDGETWNLIGKYFFDGSIKTEQMVPVKACDARWIRIYIPTLGSGSSVGHLAEIYVYGTDKLEHHHHHH | not failed |
| MRDALHVTADDADATDDAIPDSRETGVTGVVLAGGLSTRLGHDKAVIRLHGEQGPDLLVRTAALLEPLVDEVWISCRPGRCVTGPYLRIYDEVQGLGPFGGVMTALRAAQGPVLVLSCDLPFMERTLLERLLERRGARHPEALMTTFRQEETGFIESLVAVYEYACLPFFEDALTDGVHKLSRVIPAERREDIVYTQNEALPFFNVNYPADLEMARRIIGALLEHHHHHH | failed |
| MKAERPDTRKLKALKRGHIAEYRAALCLMLKGYRIVAMRYRTRLGEIDIIARRGDLVACVEVKARVSLEDAVFAVTDTAQRRIRAASDLWLSRQGDFHRLSVRYDIVAVTPWRWPRHLPDAF | failed |
| MIFMGNKVKYNLKNVHAAKLTETDSDGTTTFSYAEPKAIPGAVSISLDAEGETSPFYADGIVYFRSVTNNGYSGDLEIALIPEWFRTEILQEKLDAKGVLVENSGVGESVKFALLFEFDGDVNAIRHVLYNCSASRPSIESETKEDTIEPGTETLSITADPRSDGLVKARTGDTTDSGTYTNWYKAVYTPTEEEPEETSGEDESV | failed |
| MDTQSLVPLSTLKQGEKAYVVDLELNGLLRRRVLDLGIVPGTSLQCVGTAPAGDPIAYLVRGTVIALRSEDARSIRVNSALV | failed |
| MEPNIKVQSEDLRYIVQVVTSKIKVYDIIVDPVSVKFYFFDSDNEGIDASFDYIRRELVDKGFIPFLSRDGENFIQVTRRPKQRYFGNIVNVVLLVATILSTMYVGSQYSINFVPRGSFYELRLWAYGFLFFSAPLLLILGIHESAHFLVAKRHHVKASLPFFIPFPVGIGTFGAFISLRDPLPNRKAMTEIGAAGPIAGFLTALPLLFVADYFQGVIKPIPPYYIPFKVTFPLIYQLLGLHTNFTGPIFPMVFAVWVGMFATAMNLIPAGQLDGSHILRGVLGNRANVLSYVFLAFLFGIGFFYTGWWIIAIFVVFTGLVHPPALNDFSKISKLDIVLGIVSLAMFILTFTIVPIKPA | failed |
| MIIVTGATGKLGRRIVERLLERVPADRVGVSVRDPRKAQDLADRGVRVRQGSFDDPASLVHAFEGAEQLLLVSLDRTGQECVSGHRAAIDAAVKAGVGRILYTSQMGAAHDSRFQACRDHAQTEDLLRATGLPWTALRNGFYASSALQFLESARHTGDIALPADGPVAWTGHDDLAEATAAILAEEHRFEGPTPPLTGPAALDFDTVAEIASQTTGRPFTRTVVPDDAFREQVLAHGAPAPIGNLMLSIFAAARNGEFTAVDSTLAELIGREPATFRTQLEHAWAE | failed |
| MEWGISLQTKWSLSEYENPKRYDIENKSLSDFPFLLSWAQKLHIQNEWILDIACGTGRVTIPFIENGYQMIGVDIHEGMLAEAKKKTTDCKKVKWLQQDCLQLSMNEAIPFAFMVGHGFQHFLTNTDQNKLLTSIHHVLAENGIFIFDTRFPSKEELIQPSTEEYWTTISDEKGRECDLYTEMTYDLIQQIQHYITIRKFYDDDALVEELKTTIDLRYTYPQELERLLVANGFELLHIYNDWEGNELGEDCYSMVVVCRKK | failed |
| MEGDVYSGFGERYQMDGKLLQNFQKSFVQVQDILDQNRLLINEINQNHESKQADHLGRNVGLIRELNNNIRTVASLYGDLSHSFARSVDASSEGESTGTLKSDGKANNQKRFRSG | failed |
| MSKNNTLSMSPNFFVSGGVLLAIFTLIHLLYAGLIRPAAEVAMAEKGTEALTAFSVIFKDVEQQVCISLMLFCLFLMLYKLWRLIDEEEIYSRDLLESYDKSEALDVDAALNDLESSAYKETPAYSTWINCIRRFKNTKNVQHAADTIESSVDNIAIQLESGNNMIRYIIWAIPSIGFVGTVRGIGSALAQADKALDGDIAGMTASLGVAFNSTLVALFISLILMLFMHLLNSRQDKMVIRTQESCEKHLLSHLHS | failed |
| MVHHGQMHAQPGVGLRPDTPVASGQLPSTSIRSRRSGISKAQRETWERLWPELGLLALPQSPRGTPVDTRAWFGRDAPVVLEIGSGSGTSTLAMAKAEPHVDVIAVDVYRRGLAQLLCAIDKVGSDGINIRLILGNAVDVLQHLIAPDSLCGVRVFFPDPWPKARHHKRRLLQPATMALIADRLVPSGVLHAATDHPGYAEHIAAAGDAEPRLVRVDPDTELLPISVVRPATKYERKAQLGGGAVIELLWKKHGCSERDLKIR | failed |
| SELSQLLNEIRANYEKILTRNQIETVLSTRIQLEEDISKKMDKDEEALKAAQAELKEARRQWHHLQVEIESLHAVERGLENSLHASEQHYQMQLQDLETVIEGLEKELQEVRRGIEKQLQEHEMLLNTKMRLEQEIATYRHLLEKEEIRYYGCIQGGKKDKKPTTSRVGFVLPSAIINEISFTTKVPQKYENENVETVTKQAILNGSIVKESTEAHGTIQTEKVDEVIKEWEGSFFKDNPRLRKKSVSLRFDLHLAATDEGCLETKQDNLPDIEVRLIMRRSCSIPSIKPPSTAN | not failed |
| MSQTDELTGTANRRFVFAKLALQVEQVSKGLEAPFCLCTLDIDFFKQINDRFGHKCGDAVLRDFVGIAHSVIRRVDCFGRIGGEEFMLILPRSSIAEGREIVERLLQKVRLSRPLSEFPDFSYSCSAGMTVFRMMENADDVFMRADQALYAAKEKGRDRLLAVTLEHHHHHH | failed |
| MALSSAPILITGASQRVGLHCALRLLEHGHQVIISYRTEHASVAQLRQAGAHTLHGDFSSEASIMAFIEQLKSHTSSLRAIVHNASEWLAETPGDEAENFTRMFSVHMLAPYLINLHCEALLHASDVADIVHISDDVTRKGSSKHIAYCATKAGLESLTLSFAARFAPLVKVNGIAPALLMFQPKDDAAYRANALAKSAMGIEPGAEVIYQSLRYLLDSTYVTGTTLTVNGGRHVK | failed |
| MRILAIVKRIVNQFRRDKRTLALMFLAPLLLITLLTYLFEGDTVKPVVGVNGLSSSMVKELKENDLTIKTYPDNTNATAKIKDADLDAFFQQDGEKIKVTYENSEPSLSKEIGLKLQKALMAEQQVQVKKQAKTTGEALAKAGIDPNSLPALTNSPEKLTISTDYVYGDKDTSFFDTISPIFIGFFVFFFVFLIAGISFLRERTTGTLERLMATPIKRIELELGYLIGFGIFALLQSILVAVFSIQVLGMMQNGSLFYVLLITLTLGMVSLALGILLSTFANNEFQIVQFIPIVIVPQVLFCGIFPLDGMADWLVWIAHIMPLYYGANALTSIMVKGEGFASFANDFYILLGFVIIFVVLNIFALKKYRKV | failed |
| MIDTIIISLIAFSILVSLWRGFISEVLSLSGWIAAFFVASTFYPYLSSYLNEIDSVYLQNSEYLRNGIAAAILFIITLILCGIVNALLSKIINTTGLSATDRVLGIAFGALRGILIVAAILFFIDTFTTSNQTELWQESQLIPHFDFIVKWFFEQLQANSSFLNSTTTTK | failed |
| MKEDWKSTIQKRIVERNLNQSKKYESIMKSYNSLVEEKNNLLAIIASLTSENMYLLNNRKLNHSFESTMMTETNISRNEDIFLSNETKKGHNNNNNQNDYNNDNSLNYSRTNIITMKSPDSLSQNTITKKEFLEVIKEKGKNEELILLLKNSVNEKEKMLHILNKENNNLNNVICKREEELYEKKKDIFKLEELLNKKETQIKLYENNNKSLKTKIQLHDRKNQKYFRQYNILRFTYFKLLKQVGEMKVYNNNINQNYFSLRKEMLQKKEENEKLLNYLIHCKTSYKKELKKLYQEITNKQKKYILFKNNQFYVNLYLRKF | failed |
| MVQTPSKPITLDEFLKLPETEPASEYIEGKIIQKPMPQGKHSAIQSECVSVINSVVKPQRIARAFLELRCTFGDHSTVPDISVFIWSRIPREENGEIANIFLIAPDWTIEILSPDQSQTKVTKNILHCLKHGTQMGWLIDPDEQTVFVYRPQQETEVFDEPDALVPVPSFASELHLSIKDLFSWLL | not failed |
